# Results reported in patent publication US20150259666.
# Target: Human PAI-1 (plasminogen activator inhibitor-1), P05121
# Sequence (P05121 whole entry, looked up): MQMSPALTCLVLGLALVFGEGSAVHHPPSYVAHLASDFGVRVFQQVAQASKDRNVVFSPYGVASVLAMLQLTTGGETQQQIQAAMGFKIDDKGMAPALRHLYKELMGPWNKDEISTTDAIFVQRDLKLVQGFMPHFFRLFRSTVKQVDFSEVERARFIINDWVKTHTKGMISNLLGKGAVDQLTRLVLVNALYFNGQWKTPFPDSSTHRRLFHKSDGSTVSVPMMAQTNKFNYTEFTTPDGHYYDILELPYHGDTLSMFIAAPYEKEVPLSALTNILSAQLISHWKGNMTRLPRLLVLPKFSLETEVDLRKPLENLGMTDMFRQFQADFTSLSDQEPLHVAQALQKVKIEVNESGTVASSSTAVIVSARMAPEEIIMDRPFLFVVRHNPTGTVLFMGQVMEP
protein,measurement,value
full length t-PA (native human tissue plasminogen activator) (protein) SYQVICRDEKTQMIYQQHQSWLRPVLRSNRVEYCWCNSGRAQCHSVPVKSCSEPRCFNGGTCQQALYFSDFVCQCPEGFAGKCCEIDTRATCYEDQGISYRGTWSTAESGAECTNWNSSALAQKPYSGRRPDAIRLGLGNHNYCRNPDRDSKPWCYVFKAGKYSSEFCSTPACSEGNSDCYFGNGSAYRGTHSLTESGASCLPWNSMILIGKVYTAQNPSAQALGLGKHNYCRNPDGDAKPWCHVLKNRRLTWEYCDVPSCSTCGLRQYSQPQFRIKGGLFADIASHPWQAAIFAKHRRSPGERFLCGGILISSCWILSAAHCFQERFPPHHLTVILGRTYRVVPGEEEQKFEVEKYIVHKEFDDDTYDNDIALLQLKSDSSRCAQESSVVRTVCLPPADLQLPDWTECELSGYGKHEALSPFYSERLKEAHVRLYPSSRCTSQHLLNRTVTDNMLCAGDTRSGGPQANLHDACQGDSGGPLVCLNDGRMTLVGIISWGLGCGQKDVPGVYTKVTNYLDWIRDNMRP,residual enzyme activity after 1 hour incubation with PAI-1 (PAI-1 resistance),Full length t-PA preserve the enzyme activity up to 54%
